# Source: US20220372138A1 (IOMX THERAPEUTICS, published 2022)
# T1: murine IGSF11 expressed on cells (mouse, UniProt P0C673 23-428)
# T1 construct: MC38-IGSF11, CT26-IGSF11, MC38-wt (naturally expresses murine IGSF11)
# T1 sequence: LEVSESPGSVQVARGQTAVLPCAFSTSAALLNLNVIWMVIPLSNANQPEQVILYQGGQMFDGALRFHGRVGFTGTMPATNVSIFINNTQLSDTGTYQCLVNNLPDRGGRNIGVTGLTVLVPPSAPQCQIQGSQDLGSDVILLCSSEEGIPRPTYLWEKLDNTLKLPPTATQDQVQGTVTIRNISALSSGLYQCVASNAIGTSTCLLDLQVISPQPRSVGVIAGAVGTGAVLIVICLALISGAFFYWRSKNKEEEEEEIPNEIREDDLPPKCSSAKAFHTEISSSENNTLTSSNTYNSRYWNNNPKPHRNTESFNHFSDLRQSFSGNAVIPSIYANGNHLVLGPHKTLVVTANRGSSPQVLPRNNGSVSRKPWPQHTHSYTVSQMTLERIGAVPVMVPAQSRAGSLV
# T2: human IGSF11 (VSIG3) expressed on cells (human, UniProt Q5DX21 23-431)
# T2 sequence: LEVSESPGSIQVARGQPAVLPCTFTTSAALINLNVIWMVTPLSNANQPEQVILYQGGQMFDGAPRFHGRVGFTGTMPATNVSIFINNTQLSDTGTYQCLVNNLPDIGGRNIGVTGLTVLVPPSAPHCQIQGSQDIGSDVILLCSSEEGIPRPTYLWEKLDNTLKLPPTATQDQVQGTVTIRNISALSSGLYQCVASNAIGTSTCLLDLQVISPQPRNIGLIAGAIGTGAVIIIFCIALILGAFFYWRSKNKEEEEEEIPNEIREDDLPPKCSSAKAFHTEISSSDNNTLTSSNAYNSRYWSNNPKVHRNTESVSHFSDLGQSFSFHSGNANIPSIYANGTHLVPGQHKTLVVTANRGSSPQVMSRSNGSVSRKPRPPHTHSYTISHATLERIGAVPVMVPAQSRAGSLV
# T3: IgV domain of human IGSF11 fused to murine IgG2a Fc (human, UniProt Q5DX21 23-143)
# T3 construct: not shown: murine IgG2a Fc-region
# T3 sequence: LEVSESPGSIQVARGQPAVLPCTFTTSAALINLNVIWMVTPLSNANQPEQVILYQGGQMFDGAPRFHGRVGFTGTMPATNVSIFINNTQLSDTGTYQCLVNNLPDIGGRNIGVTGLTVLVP
# T4: full-length ECD of human IGSF11 fused to murine Fc (human, UniProt Q5DX21 23-241)
# T4 construct: also called Fc-fusion IGSF11 ECD; not shown: murine Fc
# T4 sequence: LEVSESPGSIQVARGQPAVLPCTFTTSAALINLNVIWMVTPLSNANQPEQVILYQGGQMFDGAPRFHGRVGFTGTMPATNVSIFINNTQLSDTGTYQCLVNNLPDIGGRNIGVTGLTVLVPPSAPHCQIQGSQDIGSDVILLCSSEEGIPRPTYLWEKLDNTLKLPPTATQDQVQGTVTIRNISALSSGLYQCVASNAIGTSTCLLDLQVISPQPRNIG
# T5: ECD of cynomolgus monkey IGSF11, recombinant biotinylated (cynomolgus monkey, UniProt Q5DX21 23-241 (human entry))
# T5 construct: whole entry named
# T5 chain: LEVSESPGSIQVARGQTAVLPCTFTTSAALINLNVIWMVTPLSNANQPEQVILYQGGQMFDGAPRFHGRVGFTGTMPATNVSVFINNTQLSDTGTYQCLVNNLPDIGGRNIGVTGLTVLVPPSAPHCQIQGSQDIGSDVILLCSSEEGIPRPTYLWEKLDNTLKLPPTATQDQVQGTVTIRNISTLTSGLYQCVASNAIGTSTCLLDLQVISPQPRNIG
# T6: ECD of murine IGSF11, recombinant biotinylated (mouse, UniProt P0C673 23-240)
# T6 construct: whole entry named; also called Mouse IGSF11
# T6 sequence: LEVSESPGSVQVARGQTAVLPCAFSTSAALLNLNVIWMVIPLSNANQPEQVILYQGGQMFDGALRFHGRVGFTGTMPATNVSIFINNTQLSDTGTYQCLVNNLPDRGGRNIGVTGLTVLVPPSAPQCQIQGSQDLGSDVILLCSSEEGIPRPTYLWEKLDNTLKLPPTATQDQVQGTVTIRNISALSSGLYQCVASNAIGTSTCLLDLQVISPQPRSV
# T7: extracellular domain (ECD) of human IGSF11 (VSIG3), recombinant (human, UniProt Q5DX21 23-241)
# T7 construct: biotinylated where captured on streptavidin; tags of the reagent not always stated; also called IGSF11 (ECD domain); ECD-IGSF11
# T7 sequence: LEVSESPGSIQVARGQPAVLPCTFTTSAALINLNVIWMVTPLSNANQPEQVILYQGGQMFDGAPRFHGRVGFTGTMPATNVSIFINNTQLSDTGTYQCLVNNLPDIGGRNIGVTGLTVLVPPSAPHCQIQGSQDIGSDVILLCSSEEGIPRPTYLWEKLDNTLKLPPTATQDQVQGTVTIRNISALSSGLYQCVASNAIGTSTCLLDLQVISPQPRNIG
# T8: IgC2 domain of human IGSF11 fused to murine IgG2a Fc (human, UniProt Q5DX21 137-241)
# T8 construct: not shown: murine IgG2a Fc-region
# T8 sequence: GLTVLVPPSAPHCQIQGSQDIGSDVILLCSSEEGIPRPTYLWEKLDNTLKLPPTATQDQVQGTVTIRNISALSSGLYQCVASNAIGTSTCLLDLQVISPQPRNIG
# B1: C-017 (IgG1 format) (antibody, V domains shown)
# VH: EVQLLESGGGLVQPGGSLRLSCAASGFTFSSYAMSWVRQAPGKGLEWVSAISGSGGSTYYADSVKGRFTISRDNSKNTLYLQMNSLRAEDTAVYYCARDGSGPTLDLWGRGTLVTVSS
# VL: DIQMTQSPSSLSASVGDRVTITCRASQSISSYLNWYQQKPGKAPKLLIYAASSLQSGVPSRFSGSGSGTDFTLTISSLQPEDFATYYCQQHRYIPPWTFGQGTKVEIK
# B2: C-019 (Fab format) (Fab, V domains shown)
# VH: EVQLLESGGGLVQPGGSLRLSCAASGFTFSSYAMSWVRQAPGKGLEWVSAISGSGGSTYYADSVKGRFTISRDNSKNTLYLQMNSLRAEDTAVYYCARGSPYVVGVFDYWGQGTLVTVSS
# VL: DIQMTQSPSSLSASVGDRVTITCRASQSISSYLNWYQQKPGKAPKLLIYAASSLQSGVPSRFSGSGSGTDFTLTISSLQPEDFATYYCQQWQHEPPYTFGQGTKVEIK
# notes: Fab from E. coli lysate
# B3: D-115 (IgG format) (antibody, V domains shown)
# VH: EVQLLESGGGLVQPGGSLRLSCAASGFTFQFSALSWVRQAPGKGLEWVSAISYGGGSKYYADSVKGRFTISRDNSKNTLYLQMNSLRAEDTAVYYCARDSRDAYGVAFDLWGQGTMVTVSS
# VL: ASVLTQPPSVSAAPGQKVTISCSGSSSNIGNNYVSWYQQLPGTAPKLLIYDNNKRPSGIPDRFSGSKSGTSATLGITGLQAEDEADYYCQSYESRLFVFGGGTKLTVL
# B4: C-003 (IgG1 format) (antibody, V domains shown)
# VH: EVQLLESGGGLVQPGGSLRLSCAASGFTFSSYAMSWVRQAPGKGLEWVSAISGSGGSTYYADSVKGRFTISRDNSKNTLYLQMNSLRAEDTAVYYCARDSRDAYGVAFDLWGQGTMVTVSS
# VL: ASVLTQPPSVSAAPGQKVTISCSGSSSNIGNNYVSWYQQLPGTAPKLLIYDNNKRPSGIPDRFSGSKSGTSATLGITGLQAEDEADYYCLSYTSSQYVFGGGTKLTVL
# B5: C-007 (IgG1 format) (antibody, V domains shown)
# VH: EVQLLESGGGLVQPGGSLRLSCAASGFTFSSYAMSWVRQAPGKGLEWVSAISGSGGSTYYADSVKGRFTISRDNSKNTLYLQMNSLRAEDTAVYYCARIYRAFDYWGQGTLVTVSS
# VL: ASVLTQPPSVSAAPGQKVTISCSGSSSNIGNNYVSWYQQLPGTAPKLLIYDNNKRPSGIPDRFSGSKSGTSATLGITGLQAEDEADYYCQLYEEEHSTWVFGGGTKLTVL
# B6: C-004 (Fab format) (Fab, V domains shown)
# VH: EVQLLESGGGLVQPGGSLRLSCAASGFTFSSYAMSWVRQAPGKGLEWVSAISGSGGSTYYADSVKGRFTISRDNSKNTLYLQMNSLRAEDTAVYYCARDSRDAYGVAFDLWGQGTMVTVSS
# VL: ASVLTQPPSVSAAPGQKVTISCSGSSSNIGNNYVSWYQQLPGTAPKLLIYDNNKRPSGIPDRFSGSKSGTSATLGITGLQAEDEADYYCLTWTGAGRIFVFGGGTKLTVL
# notes: Fab from E. coli lysate
# What was measured:
# [1] = target: T1, murine IGSF11 expressed on cells; experiment: IgG FACS CT26-IGSF11
# Source text: (§1) Unbound antibodies were removed by washing the cells three time with FACS buffer. Bound antibodies were detected with a mouse anti-human IgG antibody conjugated with AlexaFluor647.
# [2] = target: T2, human IGSF11 (VSIG3) expressed on cells; experiment: IgG FACS MDA-MB-231-IGSF11
# Source text: as §1
# [3] = target: T1, murine IGSF11 expressed on cells; experiment: IgG FACS MC38-IGSF11
# Source text: as §1
# [4] = target: T3, IgV domain of human IGSF11 fused to …; experiment: IgG ELISA;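 note: ELISA binding of IgG antibodies to plate-coated IGSF11 Fc-fusion proteins (full-length ECD, IgV or IgC2 domain), detected via HRP-labelled anti-human IgG with TMB development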
# [5] = target: T4, full-length ECD of human IGSF11 fused …; experiment: IgG ELISA;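 note: ELISA binding of IgG antibodies to plate-coated IGSF11 Fc-fusion proteins (full-length ECD, IgV or IgC2 domain), detected via HRP-labelled anti-human IgG with TMB development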
# [6] = target: T5, ECD of cynomolgus monkey IGSF11, …; experiment: Fab ELISA
# Procedure: (§2) In order to identify IGSF11-specific binding ABPs, monoclonal Fabs expressed from E. coli were generated from the enriched set of anti-IGFS11 antibody-expressing phage. After bacterial lysis, the Fabs were tested for their binding properties and cross-reactivity profile on recombinant ECD-IGSF11 (human, mouse and cynomolgus monkey) by standard ELISA. Briefly, biotinylated recombinant ECD-IGSF11 from human, mouse, or cynomolgus monkey were immobilized at 2 ug/mL on a streptavidin-coated 384-well Maxisorp plate. The surface was blocked with 2% (w/v) skim milk powder in PBST. After three wash cycles with PBST, a bacterial lysate of each of the anti-IGSF11 Fabs in 2% (w/v) skim milk powder was applied to the immobilized IGSF11 and incubated for 1 h. After removing all unbound Fab by 3 wash cycles with PBST, bound Fab antibodies were detected with a goat anti-human Fab antibody conjugated with horseradish peroxidase. After three wash cycles with PBST the ELISA was developed with TMB substrate.
# [7] = target: T6, ECD of murine IGSF11, recombinant …; experiment: Fab ELISA
# Procedure: as §2
# Streptavidin = Streptavidin (UniProt P22629 37-163, limits assumed); experiment: Fab ELISA
# Chain of Streptavidin (P22629 37-163 limits assumed): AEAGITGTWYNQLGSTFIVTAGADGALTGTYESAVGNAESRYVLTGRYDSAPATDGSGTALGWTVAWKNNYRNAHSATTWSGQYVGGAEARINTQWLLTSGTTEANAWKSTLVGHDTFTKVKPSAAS
# Procedure: as §2
# [8] = target: T7, extracellular domain (ECD) of human …; experiment: Fab ELISA
# Procedure: as §2
# [9] = target: T2, human IGSF11 (VSIG3) expressed on cells; experiment: IgG FACS Colo741
# Source text: as §1
# [10] = target: T7, extracellular domain (ECD) of human …; experiment: BLI apparent affinity, IgG on AHC sensor, IGSF11 ECD 100 nM
# Source text: Briefly, various APBs were loaded on an optical biosensor via a commercially available Capture System (AHC sensors, ForteBio).
# [11] = target: T8, IgC2 domain of human IGSF11 fused to …; experiment: IgG ELISA;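 note: ELISA binding of IgG antibodies to plate-coated IGSF11 Fc-fusion proteins (full-length ECD, IgV or IgC2 domain), detected via HRP-labelled anti-human IgG with TMB development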
Binder,EC50 [1] [nM],EC50 [2] [nM],EC50 [3] [nM],EC50 [4] [nM],EC50 [5] [nM],A450 [6],A450 [7],A450 (Streptavidin),A450 [8],EC50 [9] [nM],Kd [10] [nM],EC50 [11] [nM]
B1,20 to 50,15 to 25,50 to 100,1 to 20,1 to 20,,,,,,,
B2,,,,,,< 1,< 1,< 0.1,< 1,,,
B3,,,,,,,,,,< 0.1,,
B4,< 20,10 to 15,< 20,,< 1,,,,,,< 15,< 1
B5,20 to 50,< 10,< 20,< 1,< 1,,,,,,< 125,
B6,,,,,,< 1,< 1,< 0.1,< 1,,,
